Experimental findings from patent US12576025B2, “Pharmaceutical parenteral composition of dual GLP1/2 agonist” (Zealand Pharma A/S, priority 2019, dated 2026) are described below.

This series in a line: Physical stability via ThT fibril formation (ASSAY IVc). Type of series: physicochemical. Further details: key to Aggregation (ThT), no added tonicity agent / Aggregation (ThT), 270 mM mannitol: FD = Fibrillation Detected; FND = Fibrillation Not Detected. Particulars: for Aggregation (ThT), 270 mM mannitol / Aggregation (ThT), no added tonicity agent: 96 hours. The protocol: Samples were prepared in a total volume of 0.5 mL API (herein e.g. CPD1) stock solutions were prepared by dissolving API in demineralised water at ambient temperature (typically 25° C.) to achieve 5 and 25 mg/mL API, respectively. 8 working solutions were prepared: 1) 40 mM phosphate pH 6 and 80 μM ThT; 2) 40 mM phosphate pH 6.5 and 80 μM ThT; 3) 40 mM phosphate pH 7 and 80 μM ThT; 4) 40 mM phosphate pH 8 and 80 μM ThT; 5) 40 mM phosphate pH 6, 540 mM mannitol and 80 μM ThT; 6) 40 mM phosphate pH 6.5, 540 mM mannitol and 80 μM ThT; 7) 40 mM phosphate pH 7, 540 mM mannitol and 80 μM ThT; and 8) 40 mM phosphate pH 8, 540 mM mannitol and 80 μM ThT.
200 μL of API stock was mixed with 250 μL working solution, pH was measured and adjusted to target, followed by adding demineralised water to a final volume of 500 μL. Samples were loaded in a 96-well black fluorescence plate (clear bottom) in triplicate 3×150 μL. Data were collected at fixed intervals of 10 min, each preceded by 300 s of automixing (agitation), over a period of 96 hours at 40° C. Physical stability, expressed as lag-time of fibril formation (in hours), was defined as the intersection between two linear regressions representing the initial stable phase and the growth phase.

The mark [1] stands for this setting: 2 mg/mL CPD1, 20 mM phosphate pH 6, 40° C.
Setting [2] is: 2 mg/mL CPD1, 20 mM phosphate pH 6.5, 40° C.
[3] abbreviates: 2 mg/mL CPD1, 20 mM phosphate pH 7, 40° C.
Setting [4] is: 2 mg/mL CPD1, 20 mM phosphate pH 8, 40° C.
[5] abbreviates: 10 mg/mL CPD1, 20 mM phosphate pH 6, 40° C.
Setting [6] is: 10 mg/mL CPD1, 20 mM phosphate pH 6.5, 40° C.
[7] abbreviates: 10 mg/mL CPD1, 20 mM phosphate pH 7, 40° C.
Setting [8] is: 10 mg/mL CPD1, 20 mM phosphate pH 8, 40° C.

*1 amine or outer side, *2 acyl side, *3 side chain or, on linkers, in order; H or OH if unused. Where no end group is shown, it is not given here. Side-chain parts run from the residue outwards. [ ]: non-standard residue; d: D form. The star is where a group is joined. C18 diacid = O=C(O)CCCCCCCCCCCCCCCCC(=O)*; γGlu = O=C(O)[C@H](CCC(=O)[*:2])N[*:1]; Aib = CC(C)(N)C(=O)O

Turning to “H[Aib]EGSFTSELATILD[ψ]QAARDFIAWLIQHKITD (H[Aib]EGSFTSELATILDK([γGlu-C18 diacid])QAARDFIAWLIQHKITD; not fully specified; printed as H[Aib]EGSFTSELATILD[ψ]QAARDFIAWLIQHKITD; also: X16: L or D lysine) [CPD1, GLP-1/GLP-2 dual agonist]”, the “Aggregation (ThT), 270 mM mannitol” value is “FD” under setting [1]; “FND” under setting [2]; “FND” under setting [3]; “FND” under setting [4]; “FD” under setting [5]; “FND” under setting [6]. Further, the “Aggregation (ThT), 270 mM mannitol” value by setting is: under setting [7], “FND”; under setting [8], “FND”. In addition, the “Aggregation (ThT), no added tonicity agent” value by setting is: under setting [1], “FD”; under setting [2], “FND”; under setting [3], “FND”; under setting [4], “FND”; under setting [5], “FD”; under setting [6], “FND”. The “Aggregation (ThT), no added tonicity agent” value is “FND” under setting [7] and “FND” under setting [8]. For the same substance, the “Amyloid formation / fibrillation” value by setting is: (2 and 10 mg/mL CPD1, pH 6) “amyloid formation was observed”; (2 and 10 mg/mL CPD1, pH 7 or 8) “no fibrillation was observed”.
